The values below come from US20090286723A1.

In assay [1] the target is neuropeptide Y2 receptor (SK-N-BE cell membranes) (UniProt P49146). Put plainly: [125I]-human PYY displacement, SK-N-BE membranes.
Assay [2] deals with calcitonin receptor. Put plainly: cell-based or functional assay.
The target of assay [3] is calcitonin receptor. Put plainly: calcitonin receptor binding assay.

Sequence of neuropeptide Y2 receptor (SK-N-BE cell membranes) (P49146 whole entry): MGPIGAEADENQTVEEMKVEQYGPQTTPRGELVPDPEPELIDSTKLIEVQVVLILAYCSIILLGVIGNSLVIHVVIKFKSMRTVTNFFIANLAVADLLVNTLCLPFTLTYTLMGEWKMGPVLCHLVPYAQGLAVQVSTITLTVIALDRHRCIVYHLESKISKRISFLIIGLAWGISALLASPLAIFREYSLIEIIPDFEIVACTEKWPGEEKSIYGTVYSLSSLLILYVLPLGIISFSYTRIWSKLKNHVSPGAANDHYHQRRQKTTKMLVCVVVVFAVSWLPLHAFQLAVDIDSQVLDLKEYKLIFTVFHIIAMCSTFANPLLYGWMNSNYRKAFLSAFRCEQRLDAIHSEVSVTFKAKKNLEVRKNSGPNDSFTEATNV

Substance “[#Cys-Gly-Gly-PYY (3-36), amide] [Asp(#)-miniPEG3-Gly-PYY (3-36), amide] (peptide; modification not given)” registered a Receptor Binding in assay [1] of 0.8.
In assay [1], “[#Cys-Gly-Gly-PYY (3-36), amide] [Asp(#)-Pro-Pro-Pro-Pro-Pro-Pro-PYY (3-36), amide] (peptide; modification not given)” returned a Receptor Binding of 0.8.
“[Ac-alpha-MSH-bAla-bAla-PYY-(3-36), amide] (peptide; modification not given)” returned a Receptor Binding in assay [1] of 0.2.
With “[#NH-Cys-(bAla)-PYY-(3-36), amide] [#Suc-(bAla)-PYY-(3-36), amide] (peptide)”, the Receptor Activation: CT cyclase with calcitonin receptor [2] was found to be 2270. Moreover, in the assay with calcitonin receptor [3], the Receptor Binding amounted to 643.
In turn, “[Asp(#)-miniPEG-Gly-PYY (3-36), amide] [#Cys-Gly-Gly-PYY (3-36), amide] (peptide; modification not given)” yielded a Receptor Binding in assay [1] of 0.8.
